Test results taken from the RNAGym collection of RNA variant scans (doi:10.1093/molbev/msab373).

B1: Azoarcus group I ribozyme (parent)
chain: GUGCCUUGCGCCGGGAAACCACGCAAGGGAUGGUGUCAAAUUCGGCGAAACCUAAGCGCCCGCCCGGGCGUAUGGCAACGCCGAGCCAAGCUUCGGCGCCUGCGCCGAUGAAGGUGUAGAGACUAGACGGCACCCACCUAAGGCAAACGCUAUGGUGAAGGCAUAGUCCAGGGAGUGGCGAAAGUCACACAAACCGG

Variants of: B1
Assay: reverse-splicing fitness (ratio to wild type); higher = more active; in vitro selection; Mg2+ level not given
Summary of the method: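 An in vitro group I ribozyme library with randomized positions was T7-transcribed and gel-purified. In triplicate, 10 pmol RNA in EPPS pH 7.5 was reacted with 50 pmoles of a 30-nt RNA substrate for 1 h at 37 °C across several added MgCl2 levels (1–48 mM), then stopped with EDTA. Products were reverse transcribed from a substrate-complementary primer, PCR-amplified and sequenced (HiSeq 4000). Fitness is a variant's read proportion after selection over that before, normalised to wild type.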

In order of rising reverse-splicing fitness:
1. A120U A145C C150A C169A  0.0021
2. A120U A145C C150G C169G U176G  0.00252
3. A120U A145C C150G C169U U176G  0.00273
4. A120U A145C C150G C169G U176C  0.00281
5. A120C C150U C169G U176G  0.00427
6. A120G A145U C150G C169A U176G  0.00439
7. A120G C150G C169G U176G  0.00469
8. A120G A145C C150A C169A U176G  0.00472
9. A120G A145U C150A C169A U176G  0.00487
10. A120C C150G C169U U176G  0.00544
11. A120U A145C C150G C169G U176A  0.00551
12. A120G C150A C169G U176G  0.00584
13. A120G A145G C150A C169A U176G  0.00587
14. A120G A145U C150G C169U U176G  0.00602
15. A120G A145G C150G C169G U176G  0.00607
16. A120G A145U C150G U176G  0.00612
17. A120G C150U C169A U176G  0.00612
18. A120G A145C C150A C169U U176G  0.00621
19. A120U A145C C150G C169U U176A  0.00626
20. A120G A145G C150A C169G U176G  0.00637
21. A120G A145U C150A C169G U176G  0.00649
22. A120G A145G C150A C169U U176G  0.00665
23. A120G A145U C150A U176G  0.00673
24. A120G A145G C169A U176G  0.00693
25. A120G C150G C169G U176C  0.00733
26. A120G A145C C169A U176G  0.0075
27. A120G C150U C169G U176G  0.00753
28. A120U A145C C150G C169U U176C  0.00753
29. A120G A145G C150G C169A U176G  0.00777
30. A120G A145G C150G C169U U176G  0.00777
31. A120G A145C C150U C169U U176G  0.00915
32. A120G A145U C169A U176G  0.00923
33. A120G C150A U176G  0.0094
34. A120C C150U C169U U176G  0.0106
35. A120G C150U C169U U176G  0.011
36. A120C C150G C169U U176A  0.0117
37. A120G A145C C169G U176G  0.0119
38. A120U A145C C150A C169G  0.0132
39. A120G C150G C169G U176A  0.0132
40. A120G A145U C150U C169U U176G  0.0135
41. A120G U176G  0.0139
42. A120C C150U C169G U176C  0.0142
43. A120C C150G U176G  0.0145
44. A120G A145G C150G C169G U176C  0.0152
45. A120C C150U C169G U176A  0.0153
46. A120G A145G C169U U176G  0.0155
47. A120G C150U U176G  0.0157
48. A120G A145G U176G  0.0157
49. A120G A145U C150U U176G  0.0161
50. A120G A145C C150A C169A U176A  0.0162
51. A120G A145C C150A C169A U176C  0.0164
52. A120G A145C U176G  0.0166
53. A120G A145G C150G C169G U176A  0.0179
54. A120G A145G C150G C169A U176A  0.0181
55. A120U A145C C150A C169U  0.0192
56. A120G A145U C150G C169A U176A  0.0196
57. A120G C169U U176G  0.0211
58. A120G A145U C150A C169A U176A  0.0229
59. A120G A145G C150G C169U U176A  0.0263
60. A120G A145C C150A C169A  0.029
61. A120C C169G  0.029
62. A120G A145C C150A C169U U176C  0.0294
63. A120G A145U C150G C169A U176C  0.0317
64. A120G A145G C150G C169A U176C  0.0319
65. A120G A145U C150G C169U U176A  0.0333
66. A120G A145G C150A C169A U176A  0.0345
67. A120G A145U C150A C169A U176C  0.035
68. A120G A145U C150G U176A  0.0351
69. A120C C169A  0.0364
70. A120G A145C C150A  0.0374
71. A120G A145C C150A C169U  0.0377
72. A120G A145U C150A U176A  0.0378
73. A120C C150G C169U U176C  0.0388
74. A120G A145C C150A C169U U176A  0.0398
75. A120G C150A U176A  0.0445
76. A120G A145U C150A C169G U176A  0.0455
77. A120G A145U C150A C169A  0.0459
78. A120G A145C C150A C169G  0.0475
79. A120G A145U C150G U176C  0.0502
80. A120G A145U C150G C169A  0.0517
81. A120G A145U C150A U176C  0.0519
82. A120G A145U C150G C169U U176C  0.0556
83. A120G A145G C150G C169U U176C  0.0556
84. A120G A145G C150A C169A U176C  0.0558
85. A120G C150A U176C  0.058
86. A120G C150A C169A  0.0602
87. A120G C150A C169G U176A  0.0606
88. A120G A145G C150G C169A  0.0607
89. A120G A145U C150A C169G U176C  0.061
90. A120G A145G C150A C169G U176A  0.0656
91. A120G A145C C150G C169A  0.0659
92. A120G A145U C150A C169U  0.0677
93. A120G A145G C150A C169U U176C  0.0707
94. A120G C150A C169U  0.071
95. A120G A145G C150A C169U U176A  0.0726
96. A120G A145U C150G C169U  0.0748
97. A120G C150U C169A U176A  0.0776
98. A120G C150A C169G U176C  0.0784
99. A120G A145U C150A C169G  0.0841
100. A120G A145C C150G  0.0854
101. A120C C150G U176A  0.0876
102. A120G A145G C150G  0.088
103. A120G C150A C169G  0.0903
104. A120G A145C C150U C169U U176A  0.0904
105. A120G A145C C150G C169U  0.0909
106. A120G A145G C150G C169U  0.094
107. A120G A145C C169A U176A  0.0967
108. A120G A145G C150A C169G U176C  0.0972
109. A120G A145C C150U C169U U176C  0.0977
110. A120G A145G C150A  0.0988
111. A120G A145U C150G C169G  0.0994
112. A120G A145G C150G C169G  0.106
113. A120G A145U C169A U176A  0.113
114. A120G A145C C150G C169G  0.114
115. A120C C150G U176C  0.114
116. A120G A145G C169A U176A  0.114
117. A120C C150U C169U U176A  0.118
118. A120U A145C C150G U176C  0.121
119. A120G A145C C150U C169A  0.123
120. A120G C150U U176A  0.125
121. A120G C150U C169A U176C  0.126
122. A120U A145C C150G U176A  0.132
123. A120G C150U C169U U176A  0.136
124. A120G A145U C150U C169U U176A  0.14
125. A120C C150U C169U U176C  0.143
126. A120G A145C C150U C169U  0.153
127. A120G A145U C150U U176A  0.155
128. A120G C150U C169G U176A  0.157
129. A120G A145C C169A U176C  0.157
130. A120G C150U C169U U176C  0.159
131. A120G A145U C150U C169U U176C  0.162
132. A120G C150U U176C  0.164
133. A120G A145C C150U  0.166
134. A120G A145U C169A U176C  0.166
135. A120G A145G C169U U176A  0.172
136. A120G C169U U176A  0.179
137. A120G A145C U176A  0.179
138. A120G A145U C150U U176C  0.184
139. A120G A145G C169A U176C  0.185
140. A120G A145G U176A  0.193
141. A120G C150U C169G U176C  0.195
142. A120G A145G C169U U176C  0.199
143. A120G A145C C169G U176A  0.202
144. A120G C169U U176C  0.204
145. A120G U176A  0.213
146. A120G A145C C150U C169G  0.213
147. A120G U176C  0.222
148. A120G A145C U176C  0.227
149. A120G A145C C169G U176C  0.235
150. A120G A145G U176C  0.246
151. A120G A145U C150U C169A  0.33
152. A120G A145U C150U C169U  0.33
153. A120G A145C C169A  0.41
154. A120G C169U  0.418
155. A120G A145G C169A  0.424
156. A120G A145C C169U  0.435
157. A120C C169U  0.435
158. A120G A145G C150U  0.436
159. A120G A145G C169U  0.441
160. A120G C169A  0.444
161. A120G A145U C150U C169G  0.487
162. A120G  0.549
163. A120G A145C C169G  0.614
164. A120G A145G C169G  0.639
165. A120G C169G  0.64
166. A120C C150U  0.723
167. A120U  0.858
